Data as given in patent publication US20210275669A1.

Assays:
[1] = biological target: PD-1 on PATHHUNTER PD-1 Jurkat cells, Q15116; experiment: cell-based or functional assay
[2] = biological target: CTLA-4 on PATHHUNTER CTLA4 Jurkat cells, P16410; experiment: cell-based or functional assay
Chain of CTLA-4 on PATHHUNTER CTLA4 Jurkat cells, P16410 (P16410 36-223 limits assumed): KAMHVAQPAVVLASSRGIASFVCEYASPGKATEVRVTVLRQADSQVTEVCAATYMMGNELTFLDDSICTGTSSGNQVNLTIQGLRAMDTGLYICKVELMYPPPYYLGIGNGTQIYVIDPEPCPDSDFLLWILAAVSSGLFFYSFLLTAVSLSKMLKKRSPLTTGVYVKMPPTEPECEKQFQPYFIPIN

Chain of PD-1 on PATHHUNTER PD-1 Jurkat cells, Q15116 (Q15116 25-288 limits assumed): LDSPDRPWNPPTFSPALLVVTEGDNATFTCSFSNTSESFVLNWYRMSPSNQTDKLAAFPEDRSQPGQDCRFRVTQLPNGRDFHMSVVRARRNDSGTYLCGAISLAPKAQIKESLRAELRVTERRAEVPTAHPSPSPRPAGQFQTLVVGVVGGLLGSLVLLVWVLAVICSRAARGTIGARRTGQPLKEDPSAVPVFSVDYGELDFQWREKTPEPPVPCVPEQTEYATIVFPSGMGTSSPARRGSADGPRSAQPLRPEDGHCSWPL

Binder: CRRTSTGQISTLRVNITAPLSQ (modifications not checked) [peptide LD01]
- % inhibition (PATHHUNTER PD-1 assay; 100 µM; Study 1) [1]: 50.5%
- % inhibition (PATHHUNTER PD-1 assay; 100 µM; Study 2) [1]: 79%
- % inhibition (PATHHUNTER PD-1 assay; 100 µM; Study 4) [1]: 65%
- % inhibition (PATHHUNTER PD-1 assay; 100 µM; Study 5) [1]: 24%
- % inhibition (PATHHUNTER PD-1 assay; 100 µM; Study 6) [1]: 83%
- % inhibition (PATHHUNTER CTLA4 assay; 100 µM; Study 2) [2]: 51%
- % inhibition (PATHHUNTER CTLA4 assay; 100 µM; Study 4) [2]: 16%
- % inhibition (PATHHUNTER CTLA4 assay; 100 µM; Study 6) [2]: 46%
